From publication PMC10830117 (Science Advances, 2024) come the findings set out here.

This assay concerns the target T1, Glutathione synthetase (GSS), full-length wild type, recombinant (human, UniProt P48637 1-474).
T1 sequence (looked up): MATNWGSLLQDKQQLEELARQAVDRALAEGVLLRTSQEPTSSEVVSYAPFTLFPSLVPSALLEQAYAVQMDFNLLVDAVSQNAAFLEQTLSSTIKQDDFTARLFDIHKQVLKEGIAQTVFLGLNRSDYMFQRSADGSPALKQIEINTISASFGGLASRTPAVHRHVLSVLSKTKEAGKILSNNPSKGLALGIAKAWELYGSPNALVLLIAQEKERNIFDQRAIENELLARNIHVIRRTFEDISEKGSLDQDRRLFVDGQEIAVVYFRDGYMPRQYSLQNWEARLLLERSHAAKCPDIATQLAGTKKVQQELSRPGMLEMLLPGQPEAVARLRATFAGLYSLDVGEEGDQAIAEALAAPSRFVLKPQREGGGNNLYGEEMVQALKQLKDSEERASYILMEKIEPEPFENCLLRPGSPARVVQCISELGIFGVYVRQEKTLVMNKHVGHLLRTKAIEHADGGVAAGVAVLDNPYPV
Nature of the assay: SPR. (In general: Surface plasmon resonance follows binding to a sensor surface in real time, without labels.)

B1: Human LMPTP-A (low-molecular weight protein tyrosine phosphatase, isoform A) (enzyme, UniProt P24666 1-158, looked up)
chain: MAEQATKSVLFVCLGNICRSPIAEAVFRKLVTDQNISENWRVDSAATSGYEIGNPPDYRGQSCMKRHGIPMSHVARQITKEDFATFDYILCMDESNLRDLNRKSNQVKTCKAKIELLGSYDPQKQLIIEDPYYGNDSDFETVYQQCVRCCRAFLEKAH
On to B1, for which the Kd (commonly the equilibrium constant for the complex coming apart) was 244 ± 2 nM and the stoichiometry N (usually the number of molecules, sites or subunits per partner or assembly) amounted to 1.
